The source of these data is patent publication US20250128187A1.

For this assay, the target named is streptavidin immobilized on membrane (streptavidin modified membrane prepared according to FIG. 10) (Streptomyces avidinii) (UniProt P22629). The assay is described as follows: depletion from solution; 0.0055 mL streptavidin membrane incubated in 0.4 mL of 1 mg/mL biotin-conjugate for 24 hours.
Sequence of streptavidin immobilized on membrane (streptavidin modified membrane prepared according to FIG. 10) (Streptomyces avidinii) (P22629 37-163 limits assumed): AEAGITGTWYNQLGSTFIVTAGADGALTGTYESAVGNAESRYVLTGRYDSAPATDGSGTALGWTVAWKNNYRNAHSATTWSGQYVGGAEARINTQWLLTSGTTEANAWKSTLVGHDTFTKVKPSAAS

Regarding Biotin-BSA (from UniProt P02769 25-607), the Amount Immobilized (mg biotin-conjugate/mL membrane) (mg biotin-conjugate/mL membrane) was found to be 38.6. Turning to Biotin-Mal 1, the Amount Immobilized (mg biotin-conjugate/mL membrane) (mg biotin-conjugate/mL membrane) came out at 9.71.
